Each block holds one binder with its values, some of them ahead of it.
Experiments:
CD3ε = target: T1, CD3ε (UniProt P07766 23-126, limits assumed); experiment: SPR, Biacore T200, CD3ε immobilized on CM5, Fab injected
T1 construct: The antigen in the Biacore assay is called only 'CD3ε'; also called CD3ε antigen
Protocol: The binding affinity of selected Fab variants for CD3ε was measured by SPR with a BIACORE® T200 instrument. Briefly, a series S sensor chip CM5 was activated with 1-ethyl-3-(3-dimethylaminopropyl) carbodiimide (EDC) and N-hydroxysuccinimide (NHS) reagents according to the supplier's instructions, and 5 μg/ml CD3ε in 10 mM sodium acetate (pH4.0) was coupled to achieve 100 response units (RU), except for FC1 (which served as a reference). Unreacted groups were then blocked with 1 M ethanolamine. Next, three-fold serial dilutions of Fab in HBS-P buffer (0.01 M HEPES pH 7.4, 0.15M NaCl, 0.005% surfactant P20) from low (0.02 nM) to high (20 nM) were injected (flow rate: 30 μl/min). The binding responses on Fab were corrected by subtracting of RU from a blank flow cell. The sensorgram was recorded and subject to reference and buffer subtraction before evaluating by BIACORE® T200 Evaluation Software (Version 2.0). Association rates (kₐ) and dissociation rates (kd) were calculated using a simple one-to-one Langmuir binding model. The equilibrium dissociation constant (KD) was calculated as the ratio of kd/kₐ. The binding affinity kinetics were determined for a high-affinity anti-CD3 Fab, 38E4v11, having the heavy chain and light chain variable domain sequences set forth in FIG. 1.

CD3 = experiment: method not stated
Sequence of CD3 (P07766 22-207): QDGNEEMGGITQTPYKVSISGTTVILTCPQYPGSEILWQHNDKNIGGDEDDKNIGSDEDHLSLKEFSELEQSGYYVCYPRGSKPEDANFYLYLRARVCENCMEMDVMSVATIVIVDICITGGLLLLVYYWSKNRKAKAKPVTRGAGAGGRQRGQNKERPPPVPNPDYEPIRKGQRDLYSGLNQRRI

T1 sequence (P07766 23-126 limits assumed): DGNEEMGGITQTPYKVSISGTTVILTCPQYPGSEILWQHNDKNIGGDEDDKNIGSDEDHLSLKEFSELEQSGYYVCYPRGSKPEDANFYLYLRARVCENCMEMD

fold increase in binding affinity relative to parent 38E4v1 (CD3ε): > 10 fold
B1: anti-CD3 Fab 38E4v11 (Fab, V domains shown)
VH: EVQLVQSGAEVKKPGASVKVSCKASGFTFTSYYIHWVRQAPGQGLEWIGWIYPENDNTKYNEKFKDRVTITADTSTSTAYLELSSLRSEDTAVYYCARDGYSRYYFDYWGQGTLVTVSS
VL: DIVMTQSPDSLAVSLGERATINCKSSQSLLNSRTRKNYLAWYQQKPGQSPKLLIYWTSTRKSGVPDRFSGSGSGTDFTLTISSLQAEDVAVYYCTQSFILRTFGQGTKVEIK
notes: Tested as a Fab from a mammalian Fab expression construct with a Flag tag (293T cells, purified on an anti-Flag column)

Kd (CD3): 51 nM
B2: Ly6G6D (40G5c) TDB (bispecific antibody, part only; not given: anti-Ly6G6D arm and constant regions, V domains shown, not shown: another chain or arm of the molecule; a dimerising Fc or GST; small tags and cut ends)
VH: QVQLQQSGPELVKPGASVKISCKASGYTFTNYYIHWVKQRPGQGLEWIGWIYPGDGNTKYNEKFKGKATLTADTSSSTAYMQLSSLTSEDSAVYYCARDSYSNYYFDYWGQGTTLTVSS
VL: DIVMTQSPSSLAVSAGEKVTMSCKSSQSLLNSRTRKNYLAWYQQKPGQSPKLLIYWASTRESGVPDRFTGSGSGTDFTLTISSVQAEDLAVYYCTQSFILRTFGGGTKLEIK
